# Experimental data published in publication doi:10.1101/2024.10.04.616694.
# Where two headings read alike, the source gives them in different places.
# Columns and labels:
# Experiment in all cases: AUC
# [1] = molecular target: EYFP (Aequorea victoria)
# [2] = molecular target: EYFP (Aequorea victoria); remark: listed apart in the source
# [3] = molecular target: EGFP (Aequorea victoria)
# [4] = molecular target: EGFP (Aequorea victoria); remark: listed apart in the source
stoichiometry N [1],stoichiometry N [2],stoichiometry N [3],stoichiometry N [4],Substance
2,2,–,–,EYFP
–,–,2,2,EGFP
